From the RNAGym collection of RNA variant scans (doi:10.7554/elife.90254)

B1: OR4K15 (parent)
chain: GUUAACGGUCAUAGGCCAUGGAAACUAGGAGCACCAUUUCGCUGCCAGUGAAGAAAUGAACAAAGAAAAUCUGGGCCAGGCAGGCAUCAAAAGAAAUAGUCUUGCGCUCAACCAGAAAGUCUGUAAUCAUUUUAAGGGUA

Variants of: B1
Experiment: self-cleavage, relative activity (ratio to wild type); higher = more cleavage; in vitro, sequencing; the parent is a self-cleaving ribozyme

Variant	self-cleavage
U124C A126G	0.48
A33C A69G	1.71
C45A U127C	0.26
A64G C121G	2.89
A96G U102C	2.33
U102G G106C	0.01
A66G A110U	0.78
U87C U102A	0.83
A56G G83U	0.73
A51U A110G	0.23
A13U A68C	1.86
A52G G106C	0.02
C16G A54G	0.89
U108G A126G	0
A18C A23G	0.81
A111C U132C	0.01
A55G U87C	0.64
A62G U124C	0.94
A36G A110C	0.39
A27G U131C	1.67
A5C C17U	0.39
A92G A118U	0.78
A33C U124G	1.02
A116C	0.13

Variant	self-cleavage
A55C U103A	0.38
U39G A51G	1.75
C32U A51G	1.88
U43C U70C	0.83
A52U A140G	0.56
A60G A135U	1.41
A59U A126G	1.26
U26C A55G	0.31
A90U U120A	1.85
A24C A95U	2.22
A11G A134G	0.88
A78U A135G	0.3
G7A G79A	0.11
G7A A62C	1.41
A22U A66G	1.5
A62G G80C	0.13
A51C U127A	2.59
G74C A111G	0.02
A36U A78G	0.21
A5C U102A	1.35
A27G U122C	1.45
C45G A55G	1.73
U39C A135U	1.73
A30G U130G	1.09

Variant	self-cleavage
G41A U132C	1.79
U9C A140G	1.33
A47G A78G	0.26
A86G A118G	1.45
A62G A82G	0.49
A90U A110U	0.89
U9A G58U	0.65
U70C A98U	0.72
A11U U124C	1.14
A63C A90G	1.79
U9C A129G	1.37
A66G U97A	2.11
U108A U120C	0.01
A78G U131C	0.07
A5C A33G	0.87
U9C A116U	0.55
A67C A96U	2.39
A59G U133C	1.79
U70C A126U	0.71
G20A A91U	2.07
A116G A135G	0.5
A5G U43C	0.59
A30U A51G	1.55
C35U U122C	1.07

Variant	self-cleavage
C16U A111U	0.16
A23G A92G	1.17
U12C A52G	0.83
U37C A64G	1.54
A89G A96G	0.83
A33U A59G	1.28
A30U G138A	2.22
G14A U26A	1.2
A55G G106U	0.02
U12A A67G	1.56
A24C U37C	1.29
A66G G73A	0.15
A5U G138A	1.71
U2C A69G	0.91
A134G A140G	0.28
G31A A78U	0.43
A68U G106A	0
A54G U124C	0.75
A67G A114U	0.03
U2C G106A	0.03
U103G G137A	0.1
G74A U124A	0.1
U19C A96C	0.69
G8A A129U	1.63

Variant	self-cleavage
U12C C45U	1.85
A63U A86C	1.78
A5U U132C	1.4
A62G G84C	0.49
A64G U131C	1.2
U100C A129C	1.8
U49C A111G	0.02
A33G A117U	0.74
A11G A60U	1.02
C10A G20A	0.86
A110C U131A	0.17
A24G C105A	0.02
A95G U100A	1.26
C112U A116G	0
U26C A140G	1.4
U19C C76U	0.14
A22G A96G	1.28
A47G A118G	0.41
G79U U102C	0.06
U43A A126U	1.41
U39C C85G	0.99
A5U A60C	1.78
C42U A54G	1.96
A18G A86G	1.99

Variant	self-cleavage
U19C A66U	0.38
U43C A66G	1.29
A60U A114G	0.58
A51U G58U	1.45
A27G A64G	1.27
A68G U131C	0.99
G44A A110G	0.14
C85U	1.15
A22G A140G	1.85
A116C U131C	0
U19C U70C	0.7
G8A C35U	0.52
A36G U132A	1.41
A55G U72C	0.28
A47U A54G	0.67
A82U G138A	0.17
G41A A110G	0.12
A55U A62G	0.23
A47G U102A	0.78
A36U U57C	1.58
C16U A52G	0.37
U102C A118G	1.31
A5U U43G	1.19
U19C G31U	1.29

Variant	self-cleavage
U26C A126U	1.29
A96U	1.88
U57C A60G	1.01
U124C U130C	0.57
U3G	1.07
A11U A56G	1.1
A63G C88U	1.69
A18G G73U	0.23
A114G C128U	0.11
U49A A78U	0.33
U3C C25U	1.05
A114C U124C	0.03
A89C U130C	1.12
U70A U131C	0.7
U122G	2.57
A24G A55G	0.67
A54C U72A	0.43
A22G U49C	0.55
C25U U131C	1.57
U37A A64G	1.44
G29C U127C	0.39
A111G U127C	0.01
A89U A91G	1.78
